Measured values published in patent US20250051471A1, “Anti-Abcb1 Antibodies” (WILLIAM ROBERT ARATHOON LIVING TRUST DATED AUGUST 29, 2016, priority 2021, published 2025).

Assays:
Assay type in all cases: cell-based
[1] = tested on: cynomolgus Red Blood Cells; assay: Antibody binding to cynomolgus red blood cells by flow cytometry; settings: percent of RBC in the R3 gate
Method: (§1) Antibody binding to human and cynomolgus RBC was assessed by flow cytometry. Normal human and cynomolgus whole blood was obtained from BiolVT. RBC were prepared by centrifugation of whole blood aliquots (0.5 mL) for 5 min at 500xg. Supernatant (plasma) was removed, and RBC washed 3 times in D-PBS+1 mM EDTA. After the final wash, the RBC were resuspended in D-PBS+1 mM EDTA to a final volume of 0.5 mL. Washed RBC were then diluted in flow cytometry buffer (D-PBS+2% FBS+0.05% sodium azide) to 2% and dispensed at […] into 96-well plates. An equivalent volume ([…]) of antibody serially diluted in flow cytometry buffer to 2× final was added to the RBC, and the mixture incubated for 1 hour at room temperature. Next, RBC were washed 3 times with flow cytometry buffer and resuspended in 50 μL of Alexa Fluor®647 conjugated Fab fragment goat anti-human IgG diluted 1:200 in flow cytometry buffer. After 20 minutes at room temperature RBC were washed twice, resuspended in flow cytometry buffer and analyzed using an Invitrogen™ Attune™ NXT flow cytometer. […] Left panel, RBC are gated (R1) based on forward and side scatter. Middle panel, a second gate (R2) is applied to eliminate any remaining doublets or aggregates. Right panel, fluorescence of the R2 gated cells is assessed and a final gate (R3) is set using unstained RBC. Cells falling in the R3 gate are defined as “positive” for binding and reported as the percent (of R2 gated cells) that fall in the R3 gate. The results are presented at percent positive which represents the percent of RBC in the R3 gate.

N6/ADR cells = assay: Cytotoxicity potency assay (antibody titrated, vincristine constant)
Method: The relative potency of the samples was evaluated using N6/ADR cells. These cells expressed both ABCB1 and CD47 with the expression of CD47 ˜40-fold higher than ABCB1 as determined by staining with R-phycoerythrin (R-PE) conjugated, commercially available antibodies against ABCB1 (UIC2, Biolegend) and CD47 (CC2C6, Biolegend). This assay also examined the effect of antibodies on vincristine-induced cytotoxicity using the drug-resistant cell line, N6/ADR. However, in this assay format the concentration of vincristine was held constant while the ABCB1 x CD47 BsAbs (or isotype control antibodies) were serially diluted. This assay measured antibody IC50. Lower IC50 meant higher antibody potency.
The potency assay was performed as follows. Cells were plated in 0.05 mL of assay media at 5000 cells/well in white flat bottom 96-well tissue culture plates and incubated overnight at 37° C., 5% CO2. […] An equivalent volume (0.05 mL) diluted antibody/vincristine mixture was transferred to the N6/ADR cells and incubated at 37° C., in 5% CO^2. After 72 hours, plates were removed from the incubator and allowed to equilibrate to room temperature. Viability was assessed using the Promega® CellTiter-Glo® Luminescent Cell Viability Assay according to the manufacturer's recommended protocol.

human Red Blood Cells = assay: Antibody binding to human red blood cells by flow cytometry; settings: percent of RBC in the R3 gate
Method: as §1

Molecule	Binding to cynomolgus Red Blood Cells % Positive Cy744 ([1]; donor Cy744)	Binding to cynomolgus Red Blood Cells % Positive Cy745 ([1]; donor Cy745)	Binding to cynomolgus Red Blood Cells % Positive Cy747 ([1]; donor Cy747)	potency increasing cytotoxicity (N6/ADR cells)	Binding to human Red Blood Cells % positive D834 (human Red Blood Cells; donor D834)	Binding to human Red Blood Cells % positive D835 (human Red Blood Cells; donor D835)	Binding to human Red Blood Cells % positive D836 (human Red Blood Cells; donor D836)	Binding to human Red Blood Cells % positive D837 (human Red Blood Cells; donor D837)
15D3hmzhG1 HIR2/Fc/B1.89v1 huL1(KV2) hmz LC: humanized anti-ABCB1 mono arm antibody with B1.89v1 huL1(KV2) light chain (antibody, left off: another chain or arm of the molecule, humanized anti-ABCB1 mono arm antibody with B1.89v1 huL1(KV2) light chain) heavy: EVQLVESGGVVVQPGGSLRLSCAASGFTFSRYTMSWVRQAPGKGLEWVATISSGGGNTYYPDSVKGRFTVSRDNSKNSLYLQMNSLRTEDTALYYCARYGAGDAWFAYWGQGTLVTVSSASTKGPSVFPLAPSSKSTSGGTAALGCLVKDYFPEPVTVSWNSGALTSGVHTFPAVLQSSGLYSLSSVVTVPSSSLGTQTYICNVNHKPSNTKVDKRVEPKSCDKTHTCPPCPAPELLGGPSVFLFPPKPKDTLMISRTPEVTCVVVDVSHEDPEVKFNWYVDGVEVHNAKTKPREEQYNSTYRVVSVLTVLHQDWLNGKEYKCKVSNKALPAPIEKTISKAKGQPREPQVCTLPPSREEMTKNQVSLSCAVKGFYPSDIAVEWESNGQPENNYKTTPPVLDSDGSFVLVSKLTVDKSRWQQGNVFSCSVMHEALHNHYTQKSLSLSPG light: DIVMTQSPLSLPVTPGEPASISCRSSQTIVHSNGNTYLEWYLQKPGQSPQLLIYKVSKRFSGVPDRFSGSGSGTDFTLKISRVEAEDVGVYYCFQASHFPRTFGQGTKLEIKRTVAAPSVFIFPPSDEQLKSGTASVVCLLNNFYPREAKVQWKVDNALQSGNSQESVTEQDSKDSTYSLSSTLTLSKADYEKHKVYACEVTHQGLSSPVTKSFNRGEC	0.3%	0.6%	4.0%	lesser potency than the corresponding bispecific antibodies	0.2%	0.2%	0.1%	0.1%
15D3 hmz HIR2/Fc/B1VL6/CDR3v2a hmz: humanized anti-ABCB1 mono arm antibody with B1VL6/CDR3v2a light chain (antibody, left off: another chain or arm of the molecule; small tags and cut ends) heavy: EVQLVESGGVVVQPGGSLRLSCAASGFTFSRYTMSWVRQAPGKGLEWVATISSGGGNTYYPDSVKGRFTVSRDNSKNSLYLQMNSLRTEDTALYYCARYGAGDAWFAYWGQGTLVTVSSASTKGPSVFPLAPSSKSTSGGTAALGCLVKDYFPEPVTVSWNSGALTSGVHTFPAVLQSSGLYSLSSVVTVPSSSLGTQTYICNVNHKPSNTKVDKRVEPKSCDKTHTCPPCPAPELLGGPSVFLFPPKPKDTLMISRTPEVTCVVVDVSHEDPEVKFNWYVDGVEVHNAKTKPREEQYNSTYRVVSVLTVLHQDWLNGKEYKCKVSNKALPAPIEKTISKAKGQPREPQVCTLPPSREEMTKNQVSLSCAVKGFYPSDIAVEWESNGQPENNYKTTPPVLDSDGSFVLVSKLTVDKSRWQQGNVFSCSVMHEALHNHYTQKSLSLSPG light: DIVMTQSPLSLPVTPGEPASISCRSSQSLVHSNGNTYLEWYLQKPGQSPQLLIYKVSNRFSGVPDRFSGSGSGTDFTLKISRVEAEDVGVYYCFQGSHFPRTFGQGTKLEIKRTVAAPSVFIFPPSDEQLKSGTASVVCLLNNFYPREAKVQWKVDNALQSGNSQESVTEQDSKDSTYSLSSTLTLSKADYEKHKVYACEVTHQGLSSPVTKSFNRGEC				lesser potency than the corresponding bispecific antibodies				
